Test results taken from patent US20140271457A1 (AbbVie / Abbott, published 2014).
Changes are numbered by the printed parent chain.

B1: DVD3227 (bispecific antibody, IgG1)
VH: EVQLVQSGAEVKKPGASVKVSCKASGYTFANYGIIWVRQAPGQGLEWMGWINTYTGKPTYAQKFQGRVTMTTDTSTSTAYMELSSLRSEDTAVYYCARKLFTTMDVTDNAMDYWGQGTTVTVSSASTKGPSVFPLAPEVQLVESGGGLVQPGGSLRLSCAASGFSFSKYWLGWVRQAPGKGLEWVSDIYPGYDYTHYNEKFKDRFTISADTSKNTAYLQMNSLRAEDTAVYYCARSDGSSTYWGQGTLVTVSS
VL: DIQMTQSPSSLSASVGDRVTITCRASQDISQYLNWYQQKPGKAPKLLIYYTSRLQSGVPSRFSGSGSGTDFTLTISSLQPEDFATYFCQQGNTWPPTFGQGTKLEIKRTVAAPDIQMTQSPSSLSASVGDRVTITCTSSQNIVHSNGNTYLEWYQQKPGKAPKLLIYKVSNRFSGVPSRFSGSGSGTDFTLTISSLQPEDFATYYCFQVSHVPYTFGQGTKVEIKR
B2: DVD3229 (bispecific antibody, IgG1)
VH: EVQLVESGGGLVQPGGSLRLSCAASGFSFSKYWLGWVRQAPGKGLEWVSDIYPGYDYTHYNEKFKDRFTISADTSKNTAYLQMNSLRAEDTAVYYCARSDGSSTYWGQGTLVTVSSASTKGPEVQLVQSGAEVKKPGASVKVSCKASGYTFANYGIIWVRQAPGQGLEWMGWINTYTGKPTYAQKFQGRVTMTTDTSTSTAYMELSSLRSEDTAVYYCARKLFTTMDVTDNAMDYWGQGTTVTVSS
VL: DIQMTQSPSSLSASVGDRVTITCTSSQNIVHSNGNTYLEWYQQKPGKAPKLLIYKVSNRFSGVPSRFSGSGSGTDFTLTISSLQPEDFATYYCFQVSHVPYTFGQGTKVEIKRTVAAPDIQMTQSPSSLSASVGDRVTITCRASQDISQYLNWYQQKPGKAPKLLIYYTSRLQSGVPSRFSGSGSGTDFTLTISSLQPEDFATYFCQQGNTWPPTFGQGTKLEIKR
B3: DVD3231 (bispecific antibody, IgG1)
VH: B2 VH
VL: DIQMTQSPSSLSASVGDRVTITCTSSQNIVHSNGNTYLEWYQQKPGKAPKLLIYKVSNRFSGVPSRFSGSGSGTDFTLTISSLQPEDFATYYCFQVSHVPYTFGQGTKVEIKRTVAAPSVFIFPPDIQMTQSPSSLSASVGDRVTITCRASQDISQYLNWYQQKPGKAPKLLIYYTSRLQSGVPSRFSGSGSGTDFTLTISSLQPEDFATYFCQQGNTWPPTFGQGTKLEIKR
B4: DVD3232 (bispecific antibody, IgG1)
VH: EVQLVESGGGLVQPGGSLRLSCAASGFSFSKYWLGWVRQAPGKGLEWVSDIYPGYDYTHYNEKFKDRFTISADTSKNTAYLQMNSLRAEDTAVYYCARSDGSSTYWGQGTLVTVSSASTKGPSVFPLAPEVQLVQSGAEVKKPGASVKVSCKASGYTFANYGIIWVRQAPGQGLEWMGWINTYTGKPTYAQKFQGRVTMTTDTSTSTAYMELSSLRSEDTAVYYCARKLFTTMDVTDNAMDYWGQGTTVTVSS
VL: B2 VL
B5: DVD3233 (bispecific antibody, IgG1)
VH: EVQLVQSGAEVKKPGASVKVSCKASGYTFNNYGIIWVRQAPGQGLEWMGWINTYTGKPTYAQKFQGRVTMTTDTSTSTAYMELSSLRSEDTAVYYCARKLFNTVAVTDNAMDYWGQGTTVTVSSGGGGSGGGGSEVQLVESGGGLVQPGGSLRLSCAASGFSFSKYWLGWVRQAPGKGLEWVSDIYPGYDYTHYNEKFKDRFTISADTSKNTAYLQMNSLRAEDTAVYYCARSDGSSTYWGQGTLVTVSS
VL: DIQMTQSPSSLSASVGDRVTITCRASQDIENYLNWYQQKPGKAPKLLIYYTSRLQSGVPSRFSGSGSGTDFTLTISSLQPEDFATYFCQQGNTQPPTFGQGTKLEIKRGGSGGGGSGDIQMTQSPSSLSASVGDRVTITCTSSQNIVHSNGNTYLEWYQQKPGKAPKLLIYKVSNRFSGVPSRFSGSGSGTDFTLTISSLQPEDFATYYCFQVSHVPYTFGQGTKVEIKR
B6: DVD3228 (bispecific antibody, IgG1)
VH: EVQLVESGGGLVQPGGSLRLSCAASGFSFSKYWLGWVRQAPGKGLEWVSDIYPGYDYTHYNEKFKDRFTISADTSKNTAYLQMNSLRAEDTAVYYCARSDGSSTYWGQGTLVTVSSGGGGSGGGGSEVQLVQSGAEVKKPGASVKVSCKASGYTFANYGIIWVRQAPGQGLEWMGWINTYTGKPTYAQKFQGRVTMTTDTSTSTAYMELSSLRSEDTAVYYCARKLFTTMDVTDNAMDYWGQGTTVTVSS
VL: DIQMTQSPSSLSASVGDRVTITCTSSQNIVHSNGNTYLEWYQQKPGKAPKLLIYKVSNRFSGVPSRFSGSGSGTDFTLTISSLQPEDFATYYCFQVSHVPYTFGQGTKVEIKRGGSGGGGSGDIQMTQSPSSLSASVGDRVTITCRASQDISQYLNWYQQKPGKAPKLLIYYTSRLQSGVPSRFSGSGSGTDFTLTISSLQPEDFATYFCQQGNTWPPTFGQGTKLEIKR
B7: DVD3226 (bispecific antibody, IgG1)
VH: EVQLVQSGAEVKKPGASVKVSCKASGYTFANYGIIWVRQAPGQGLEWMGWINTYTGKPTYAQKFQGRVTMTTDTSTSTAYMELSSLRSEDTAVYYCARKLFTTMDVTDNAMDYWGQGTTVTVSSASTKGPEVQLVESGGGLVQPGGSLRLSCAASGFSFSKYWLGWVRQAPGKGLEWVSDIYPGYDYTHYNEKFKDRFTISADTSKNTAYLQMNSLRAEDTAVYYCARSDGSSTYWGQGTLVTVSS
VL: DIQMTQSPSSLSASVGDRVTITCRASQDISQYLNWYQQKPGKAPKLLIYYTSRLQSGVPSRFSGSGSGTDFTLTISSLQPEDFATYFCQQGNTWPPTFGQGTKLEIKRTVAAPSVFIFPPDIQMTQSPSSLSASVGDRVTITCTSSQNIVHSNGNTYLEWYQQKPGKAPKLLIYKVSNRFSGVPSRFSGSGSGTDFTLTISSLQPEDFATYYCFQVSHVPYTFGQGTKVEIKR
B8: DVD3236 (bispecific antibody, IgG1)
VH: B7 VH with A30N, T102N, M104V, D105A
VL: B7 VL with S30E, Q31N, W94Q
B9: DVD3234 (bispecific antibody, IgG1)
VH: B7 VH with A30N, T102N, M104V, D105A
VL: B1 VL with S30E, Q31N, W94Q

target: Recombinant Human TNF-α/TNFSF1A (human, UniProt P01375 77-233); assay: cell-based or functional assay
Sequence (P01375 77-233 limits assumed): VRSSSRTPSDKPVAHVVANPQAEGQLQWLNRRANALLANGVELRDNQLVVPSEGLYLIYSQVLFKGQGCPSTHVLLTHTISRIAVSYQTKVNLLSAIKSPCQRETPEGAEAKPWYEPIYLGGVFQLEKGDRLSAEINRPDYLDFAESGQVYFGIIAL

Row | N-Terminal VD huTNFα Neutralization Assay IC50 [nM] | C-Terminal VD huTNFα Neutralization Assay IC50 [nM] | Binder
1 | 0.002 |  | B1
2 |  | 0.086 | B2
3 |  | 0.112 | B3
4 |  | 0.254 | B4
5 | 0.005 |  | B5
6 |  | 0.052 | B6
7 | 0.011 |  | B7
8 | 0.006 |  | B8
9 | 0.009 |  | B9
